# Laboratory results from IntAct's records for PubMed 26918958.
# B1: Latent-transforming growth factor beta-binding protein 4 (Homo sapiens), Q8N2S1-1 (parent)
# chain: MPRPGTSGRRPLLLVLLLPLFAAATSAASPSPSPSQVVEVPGVPSRPASVAVCRCCPGQTSRRSRCIRAFCRVRSCQPKKCAGPQRCLNPVPAVPSPSPSVRKRQVSLNWQPLTLQEARALLKRRRPRGPGGRGLLRRRPPQRAPAGKAPVLCPLICHNGGVCVKPDRCLCPPDFAGKFCQLHSSGARPPAPAVPGLTRSVYTMPLANHRDDEHGVASMVSVHVEHPQEASVVVHQVERVSGPWEEADAEAVARAEAAARAEAAAPYTVLAQSAPREDGYSDASGFGYCFRELRGGECASPLPGLRTQEVCCRGAGLAWGVHDCQLCSERLGNSERVSAPDGPCPTGFERVNGSCEDVDECATGGRCQHGECANTRGGYTCVCPDGFLLDSSRSSCISQHVISEAKGPCFRVLRDGGCSLPILRNITKQICCCSRVGKAWGRGCQLCPPFGSEGFREICPAGPGYHYSASDLRYNTRPLGQEPPRVSLSQPRTLPATSRPSAGFLPTHRLEPRPEPRPDPRPGPELPLPSIPAWTGPEIPESGPSSGMCQRNPQVCGPGRCISRPSGYTCACDSGFRLSPQGTRCIDVDECRRVPPPCAPGRCENSPGSFRCVCGPGFRAGPRAAECLDVDECHRVPPPCDLGRCENTPGSFLCVCPAGYQAAPHGASCQDVDECTQSPGLCGRGACKNLPGSFRCVCPAGFRGSACEEDVDECAQEPPPCGPGRCDNTAGSFHCACPAGFRSRGPGAPCQDVDECARSPPPCTYGRCENTEGSFQCVCPMGFQPNTAGSECEDVDECENHLACPGQECVNSPGSFQCRTCPSGHHLHRGRCTDVDECSSGAPPCGPHGHCTNTEGSFRCSCAPGYRAPSGRPGPCADVNECLEGDFCFPHGECLNTDGSFACTCAPGYRPGPRGASCLDVDECSEEDLCQSGICTNTDGSFECICPPGHRAGPDLASCLDVDECRERGPALCGSQRCENSPGSYRCVRDCDPGYHAGPEGTCDDVDECQEYGPEICGAQRCENTPGSYRCTPACDPGYQPTPGGGCQDVDECRNRSFCGAHAVCQNLPGSFQCLCDQGYEGARDGRHCVDVNECETLQGVCGAALCENVEGSFLCVCPNSPEEFDPMTGRCVPPRTSAGTFPGSQPQAPASPVLPARPPPPPLPRRPSTPRQGPVGSGRRECYFDTAAPDACDNILARNVTWQECCCTVGEGWGSGCRIQQCPGTETAEYQSLCPHGRGYLAPSGDLSLRRDVDECQLFRDQVCKSGVCVNTAPGYSCYCSNGYYYHTQRLECIDNDECADEEPACEGGRCVNTVGSYHCTCEPPLVLDGSQRRCVSNESQSLDDNLGVCWQEVGADLVCSHPRLDRQATYTECCCLYGEAWGMDCALCPAQDSDDFEALCNVLRPPAYSPPRPGGFGLPYEYGPDLGPPYQGLPYGPELYPPPALPYDPYPPPPGPFARREAPYGAPRFDMPDFEDDGGPYGESEAPAPPGPGTRWPYRSRDTRRSFPEPEEPPEGGSYAGSLAEPYEELEAEECGILDGCTNGRCVRVPEGFTCRCFDGYRLDMTRMACVDINECDEAEAASPLCVNARCLNTDGSFRCICRPGFAPTHQPHHCAPARPRA
# Variants of: B1
# Details: with tgfb1_human TGFB1, P01137
# tgfb1_human TGFB1, P01137, sequence (P01137 whole entry): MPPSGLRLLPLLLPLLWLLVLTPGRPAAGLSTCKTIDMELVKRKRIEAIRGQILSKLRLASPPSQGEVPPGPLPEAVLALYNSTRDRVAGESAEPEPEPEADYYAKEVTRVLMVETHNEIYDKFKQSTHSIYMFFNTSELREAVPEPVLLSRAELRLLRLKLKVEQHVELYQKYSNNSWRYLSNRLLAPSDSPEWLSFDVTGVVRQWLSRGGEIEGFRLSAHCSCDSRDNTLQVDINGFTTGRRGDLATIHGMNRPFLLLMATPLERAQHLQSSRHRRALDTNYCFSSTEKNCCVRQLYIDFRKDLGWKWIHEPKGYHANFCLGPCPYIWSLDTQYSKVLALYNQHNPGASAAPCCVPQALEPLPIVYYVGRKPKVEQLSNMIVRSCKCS
row,Variant,effect of a mutation on the interaction
1,T1141M,with no effect
2,V194I;T787A;T820A;T1141M,with no effect
